The text below walks through data of article PMC10643666.

The assay concerns the target ZIKV envelope (E) protein, HA-tagged. Nature of the assay: co-immunoprecipitation (HA-specific IP) with densitometry of immunoblots. The settings on record: HEK 293T cells, lysed 18 h after transfection; n = 4; parent: est. 0.93; read off a plot. On the technique in general: Immunoblotting shows a protein as a band on a membrane.
Turning to ZIKV prM protein, wild type K60L; Y63A, the ratio to parent (fold E; mut:WT) came to 1.7. Then ZIKV prM protein, wild type K60L; Y63S, with 0.9; and ZIKV prM protein, wild type R38L; F42A, with 1.6. Then ZIKV prM protein, wild type R38L; F42S, with 0.93.
